Reference: paper PMC8178393

Biological target: pyruvate kinase isozyme M2 (mouse (endogenous in splenic CD4+ T cells polarized into Th17 cells)) (UniProt P52480)
Assay: cross-linking; Th17 cells treated with or without HCA for 24 h; cells washed with ice-cold PBS pH 8.0, disuccinimidyl suberate at 1 uM for 30 min at room temperature, quenched with 10 mM Tris, lysed, Western blot for monomeric and tetrameric PKM2

Sequence of pyruvate kinase isozyme M2, P52480 1-531 (enzyme; other documents disagree on this pair) (P52480 whole entry): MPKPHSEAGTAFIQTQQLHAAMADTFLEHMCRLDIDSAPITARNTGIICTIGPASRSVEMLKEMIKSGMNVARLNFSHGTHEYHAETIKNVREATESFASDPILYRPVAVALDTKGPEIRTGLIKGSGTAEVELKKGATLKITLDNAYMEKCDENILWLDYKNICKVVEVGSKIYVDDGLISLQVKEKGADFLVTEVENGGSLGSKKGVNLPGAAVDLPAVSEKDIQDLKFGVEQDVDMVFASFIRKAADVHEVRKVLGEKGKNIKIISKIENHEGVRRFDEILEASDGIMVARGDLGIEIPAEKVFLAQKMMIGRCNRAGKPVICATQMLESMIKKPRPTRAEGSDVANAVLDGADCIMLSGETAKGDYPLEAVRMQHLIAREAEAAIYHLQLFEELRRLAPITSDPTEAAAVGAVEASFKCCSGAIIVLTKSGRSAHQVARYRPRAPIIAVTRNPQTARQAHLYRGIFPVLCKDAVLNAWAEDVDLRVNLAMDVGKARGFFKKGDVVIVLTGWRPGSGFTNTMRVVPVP

stoichiometry N: 4
Substance: pyruvate kinase isozyme M2, P52480 1-531 (enzyme; other documents disagree on this pair)
